In patent US20020155503:

Experiments:
[1] = target: T1, Lys-Lys-Lys-Lys-Ala-Asp-Glu-Glu-Asp-Tyr-Phe-Ile-Pro-Pro-Ala
T1 chain: KKKKADEEDYFIPPA

[2] = target: Serine-tyrosine-phenylalanine-histamine-glutamine

B1: catalytic domain of human ZAP-70 (amino acid 306-615), recombinant, from baculovirus-infected Sf9 cells (protein)
chain: RPMPMDTSVYESPYSDPEELKDKKLFLKRDNLLIADIELGCGNFGSVRQGVYRMRKKQIDVAIKVLKQGTEKADTEEMMREAQIMHQLDNPYIVRLIGVCQAEALMLVMEMAGGGPLHKFLVGKREEIPVSNVAELLHQVSMGMKYLEEKNFVHRDLAARNVLLVNRHYAKISDFGLSKALGADDSYYTARSAGKWPLKWYAPECINFRKFSSRSDVWSYGVTMWEALSYGQKPYKKMKGPEVMAFIEQGKRMECPPECPPELYALMSDCWIYKWEDRPDFLTVEQRMRACYYSLASKVEGPPGSTQKAE
**Q.** For B1, which “Km (33P-γ-ATP phosphorylation of the biotin peptide, streptavidin filter plate capture)” value (Biotin-εAHA-DEEDYFE(Nle)) is on record?
**A.** 15.79 µM

**Q.** And the “protein kinase activity against the peptide substrate (column fractions)” value [1]?
**A.** ZAP-70 fractions identified by protein kinase activity against the peptide substrate Lys-Lys-Lys-Lys-Ala-Asp-Glu-Glu-Asp-Tyr-Phe-Ile-Pro-Pro-Ala

B2: recombinant form of the human CSK enzyme (protein)
chain: MSAIQAAWPSGTECIAKYNFHGTAEQDLPFCKGDVLTIVAVTKDPNWYKAKNKVGREGIIPANYVQKREGVKAGTKLSLMPWFHGKITREQAERLLYPPETGLFLVRESTNYPGDYTLCVSCDGKVEHYRIMYHASKLSIDEEVYFENLMQLVEHYTSDADGLCTRLIKPKVMEGTVAAQDEFYRSGWALNMKELKLLQTIGKGEFGDVMLGDYRGNKVAVKCIKNDATAQAFLAEASVMTQLRHSNLVQLLGVIVEEKGGLYIVTEYMAKGSLVDYLRSRGRSVLGGDCLLKFSLDVCEAMEYLEGNNFVHRDLAARNVLVSEDNVAKVSDFGLTKEASSTQDTGKLPVKWTAPEALREKKFSTKSDVWSFGILLWEIYSFGRVPYPRIPLKDVVPRVEKGYKMDAPDGCPPAVYEVMKNCWHLDAAMRPSFLQLREQLEHIKTHELHL
**Q.** Which results are given for B2?
**A.** phosphorylation of library peptide, anti-phosphotyrosine ELISA (absorbance at 450 nm); preferred substrate of the sub-set (Tyr-Pro-Ile-Glu-Val): Library Sub-Set 5 Tyr-Pro-Ile-Glu-Val [SEQ ID No. 20]; phosphorylation of library peptide, anti-phosphotyrosine ELISA (absorbance at 450 nm); preferred substrate of the sub-set (Asp-Glu-Glu-Glu-Tyr): Library Sub-Set 1 Asp-Glu-Glu-Glu-Tyr [SEQ ID No. 16]; phosphorylation of library peptide, anti-phosphotyrosine ELISA (absorbance at 450 nm); preferred substrate of the sub-set (Asp-Tyr-His-Leu-Phe): Library Sub-Set 4 Asp-Tyr-His-Leu-Phe [SEQ ID No. 19]; phosphorylation of library peptide, anti-phosphotyrosine ELISA (absorbance at 450 nm); preferred substrate of the sub-set (Asp-Glu-Glu-Tyr-Phe): Library Sub-Set 2 Asp-Glu-Glu-Tyr-Phe [SEQ ID No. 17]; phosphorylation of library peptide, anti-phosphotyrosine ELISA (absorbance at 450 nm); preferred substrate of the sub-set (Asp-Glu-Tyr-His-Asn): Library Sub-Set 3 Asp-Glu-Tyr-His-Asn [SEQ ID No. 18]

B3: recombinant form of the Abelson murine leukaemia virus protein tyrosine kinase v-Abl (protein)
chain: YITPVNSLEKHSWYHGPVSRNAAEYLLSSGINGSFLVRESESSPGQRSISLRYEGRVYHYRINTASDGKLYVSSESRFNTLAELVHHHSTVADGLITTLHYPAPKRNKPTIYGVSPNYDKWEMERTDITMKHKLGGGQYGEVYEGVWKKYSLTVAVKTLKEDTMEVEEFLKEAAVMKEIKHPNLVQLLGVCTREPPFYIITEFMTYGNLLDYLRECNRQEVSAVVLLYMATQISSAMEYLEKKNFIHRDLAARNCLVGENHLVKVADFGLSRLMTGDTYTAHAGAKFPIKWTAPESLAYNKFSIKSDVWAFGVLLWEIATYGMSPYPGIDLSQVYELLEKDYRMERPEGCPEKVYELMRACWQWNPSDRPSFAEIHQAFETMFQESSISDEVEKELGKRG
**Q.** With B3 as the protein, how does the “phosphorylation of library peptide, anti-phosphotyrosine ELISA (absorbance at 450 nm); preferred substrate of Library Sub-Set 4” value [2] read?
**A.** The active site substrate recognition substrate for this enzyme for this Sub-Set was Serine-tyrosine-phenylalanine-histamine-glutamine [SEQ ID No. 21]
